Measurements as given in patent publication US20060142548A1, “Methods of identifying and designing cell surface receptor inhibitors” (priority 2003, published 2006).

Experiments:
[1] = molecular target: physiologic ligand; test: ligand binding to membrane-bound integrin
[2] = molecular target: T1, αA domain from CD11a (Homo sapiens, UniProt P20701); conditions: binding at the strand-F/α7 interface; reference 84; cited from earlier work
T1 sequence (P20701 156-327 limits assumed): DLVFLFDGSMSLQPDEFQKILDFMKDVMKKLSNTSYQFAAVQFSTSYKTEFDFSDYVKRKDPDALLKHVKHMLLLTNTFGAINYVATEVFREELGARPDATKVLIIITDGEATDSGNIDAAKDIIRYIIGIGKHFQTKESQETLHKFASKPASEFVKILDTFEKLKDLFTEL

Molecule	fold increase of binding [1] [fold]	effect of binding on integrin activation state [2]
αVβ3 integrin mutant D^126D^127/A^126A^127, membrane-bound (from UniProt P06756 31-1048; P05106 27-788) (receptor)	1.5 to 2	–
CC[C@H](C)C(=O)O[C@H]1C[C@@H](C)C=C2C=C[C@H](C)[C@H](CC[C@@H]3C[C@@H](O)CC(=O)O3)[C@H]21 [lovastatin]	–	locks this integrin in the inactive state
